Measurements published in the supplement of paper PMC10126150.
± gives the standard deviation of the averaged measurements.

What follows are sequences tested on ATP (assay: switch fluorescence ratio, 500 uM ATP over buffer (Cy3 cluster intensity, sum of 5 cycles each) (fold (ratio)); higher = stronger signal-on switching upon ATP binding; sequences stand for … in TCGTCGGCAGCGTCAGATGTGTATAAGAGACAGTTTTTTTTTTTTTTTTTTTTTTTTT…TC). Conditions: aptamer strand: ATP DNA aptamer (quencher-CACCTGGGGGAGTATTGCGGAGGAAGG + anchor), 100 nM annealed; ATP concentration: 500 uM.
How it was run: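 After annealing to 100 nM quencher-labelled ATP aptamer, Cy3-labelled switching-strand clusters on a modified Illumina MiSeq flow-cell were imaged in selection buffer. A second image followed after 15 min with 500 uM ATP at 22 °C, and five such buffer/ATP cycles were done, each separated by NaOH stripping and re-annealing. The fluorescence ratio, averaged per switch-domain sequence, is summed target-cycle over summed buffer-cycle Cy3 intensity per cluster, with clusters outside 100-1000 RFU excluded.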
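Further: ATP exposure 15 min at 22 °C before imaging.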

| Sequence | switch fluorescence ratio |
| --- | --- |
| CAAGTACGGA | 1.1 ± 0.17 |
| CAAGTATCGG | 0.973 ± 0.027 |
| CAAGTATGGG | 0.974 ± 0.035 |
| CAAGTATTTA | 1.03 ± 0.011 |
| CAAGTCAAGA | 1.0299 ± 0.00028 |
| CAAGTCAAGG | 1.007 ± 0.0062 |
| CAAGTCAGTA | 0.991 ± 0.025 |
| CAAGTCTATT | 1.01 ± 0.04 |
| CAAGTGCCTG | 1.01 ± 0.025 |
| CAAGTGTATC | 1.02 ± 0.045 |
| CAAGTGTTGG | 1.01 ± 0.05 |
| CAAGTTAAAG | 1.01 ± 0.015 |
| CAAGTTGTGT | 0.9774 ± 0.0087 |
| CAAGTTTTTG | 1.01 ± 0.033 |
| CAATAAAATC | 0.9924 ± 0.0019 |
| CAATAAGGGG | 1.04 ± 0.1 |
| CAATAATGTG | 0.968 ± 0.034 |
| CAATACAGGG | 1.04 ± 0.042 |
| CAATAGATGG | 0.999 ± 0.016 |
| CAATAGTAGA | 1.01 ± 0.036 |
| CAATATAGTG | 0.981 ± 0.024 |
| CAATATATTT | 0.982 ± 0.0049 |
| CAATATCCCG | 1.05 ± 0.028 |
| CAATATGACT | 0.991 ± 0.092 |
| CAATCACAGG | 1.286 ± 0.0086 |

| Sequence | switch fluorescence ratio |
| --- | --- |
| CAATCGACCT | 1.27 ± 0.046 |
| CAATCTAAAT | 0.969 ± 0.027 |
| CAATGAAAGC | 1.04 ± 0.021 |
| CAATGAGCCG | 1.02 ± 0.052 |
| CAATGAGTTT | 0.97 ± 0.033 |
| CAATGATTGA | 1.02 ± 0.018 |
| CAATGCATGC | 1.14 ± 0.082 |
| CAATGCGGGG | 1.01 ± 0.023 |
| CAATGGAAAT | 0.984 ± 0.025 |
| CAATGGAGAA | 1.01 ± 0.021 |
| CAATGGAGGA | 1.011 ± 0.0058 |
| CAATGGCCTG | 0.984 ± 0.013 |
| CAATGGGAG | 0.988 ± 0.014 |
| CAATGGGGTA | 0.992 ± 0.012 |
| CAATGGGGTT | 1.02 ± 0.027 |
| CAATGGTTCA | 1.01 ± 0.013 |
| CAATGTCGTT | 0.985 ± 0.047 |
| CAATGTCTGG | 1.008 ± 0.0027 |
| CAATGTGAAA | 1.008 ± 0.0093 |
| CAATTATGAC | 1 ± 0.045 |
| CAATTCCGTG | 1.02 ± 0.022 |
| CAATTGCAAT | 1.02 ± 0.02 |
| CAATTGCGTA | 0.981 ± 0.068 |
| CAATTGGCCT | 1.05 ± 0.03 |
| CAATTGGTAC | 1.05 ± 0.013 |

| Sequence | switch fluorescence ratio |
| --- | --- |
| CAATTGTCGT | 0.991 ± 0.033 |
| CAATTGTGGG | 0.996 ± 0.026 |
| CAATTTAATG | 0.999 ± 0.019 |
| CAATTTACGG | 1.1 ± 0.036 |
| CAATTTCCAG | 1.02 ± 0.026 |
| CAATTTGAAG | 0.978 ± 0.051 |
| CAATTTGTGG | 0.968 ± 0.021 |
| CAATTTTATA | 1.033 ± 0.0026 |
| CAATTTTGGA | 1.01 ± 0.028 |
| CACAACACTC | 1.37 ± 0.044 |
| CACAACGGTG | 1.04 ± 0.033 |
| CACAAGGACG | 0.962 ± 0.017 |
| CACAGCAGTC | 2.62 ± 0.34 |
| CACAGGCCCA | 1.04 ± 0.056 |
| CACATTGTCC | 0.9773 ± 0.0025 |
| CACCGGTTCT | 1.03 ± 0.011 |
| CACCTGGGGG | 1.13 ± 0.11 |
| CACGACTTTT | 1.05 ± 0.04 |
| CACGAGTTGG | 1.014 ± 0.0049 |
| CACGATATTC | 1.18 ± 0.027 |
| CACGCGGAGG | 1.03 ± 0.039 |
| CACGGCCGAA | 0.973 ± 0.013 |
| CACGGGCGGG | 1.05 ± 0.063 |
| CACGGGCTTC | 1.016 ± 0.0084 |
| CACGGGGAAC | 1.28 ± 0.32 |

| Sequence | switch fluorescence ratio |
| --- | --- |
| CACGGGGGGC | 1.02 ± 0.054 |
| CACGGGGGGT | 1.02 ± 0.052 |
| CACGGGGTTG | 0.982 ± 0.069 |
| CACGGTACGT | 1.06 ± 0.022 |
| CACGTAATTA | 1.25 ± 0.048 |
| CACGTATTCA | 1.15 ± 0.045 |
| CACGTTTGTT | 1.027 ± 0.004 |
| CACTAAAGAT | 1.004 ± 0.0052 |
| CACTAATAAT | 1.033 ± 0.0029 |
| CACTAATTAA | 1.004 ± 0.009 |
| CACTACGAAT | 1.051 ± 0.007 |
| CACTAGAGTG | 1.021 ± 0.0063 |
| CACTAGATGG | 0.992 ± 0.02 |
| CACTAGTAAA | 0.9984 ± 0.0094 |
| CACTATAATG | 1.05 ± 0.042 |
| CACTCATTTT | 0.98 ± 0.033 |
| CACTCCTGTG | 1.01 ± 0.04 |
| CACTCGCCTC | 1.134 ± 0.0068 |
| CACTCTAGGC | 1.07 ± 0.02 |
| CACTGGACGG | 1.28 ± 0.049 |
| CACTGGCATG | 0.998 ± 0.029 |
| CACTGGGGGA | 0.9949 ± 0.0013 |
| CACTGTGTTG | 0.987 ± 0.035 |
| CACTTACGTT | 1.347 ± 0.012 |
| CACTTAGGGG | 1.01 ± 0.022 |
